{
  "source": "patent US20260055191A1",
  "binders": {"B1": {"name": "sCD89 glycoengineered polypeptide (receptor)", "chain": "QEGDFPMPFISAKSSPVIPLDGSVKIQCQAIREAYLTQLMIIKNSTYREIGRRLKFWNETDPEFVIDHMDANKAGRYQCQYRIGHYRFRYSDTLELVVTGLYGKPFLSADRGLVLMPGEQISLTCSSAHIPFDRFSLAKEGELSLPQHQSGEHPAQFSLGPVDLQVSGIYRCYGWYQRSPYLWSFPSNALELVVTGGGGANSTAPAPAPAHHHHHHHHHH", "modifications": "A2GalNAc2 N-glycans (82.8% A2GalNAc2) at three N-glycosylation sites: native N65 and N79 (numbering according to Uniprot P24071) and the site in the C-terminal glycotag; >95% all occupied"}},
  "target": "purified total human IgA (human) (UniProt P11912)",
  "sequence (P11912 whole entry)": "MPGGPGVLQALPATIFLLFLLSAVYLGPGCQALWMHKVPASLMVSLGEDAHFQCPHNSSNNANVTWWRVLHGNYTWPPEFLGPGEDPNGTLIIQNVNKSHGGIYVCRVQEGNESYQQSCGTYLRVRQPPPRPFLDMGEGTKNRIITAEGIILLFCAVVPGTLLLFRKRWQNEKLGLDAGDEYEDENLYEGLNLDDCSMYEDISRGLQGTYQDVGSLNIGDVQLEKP",
  "experiment": "cell-based or functional assay",
  "data": [
    {"binder": "B1", "values": [
      {"measurement": "percent of human IgA target remaining in rat serum (total free+bound human IgA by ELISA) 6 hours after subcutaneous administration of 2.0 mg", "value": "< 5", "unit": "%"}
    ]}
  ]
}
